Test results reported in paper PMC5737704, “The herpes viral transcription factor ICP4 forms a novel DNA recognition complex” (Nucleic Acids Research, 2017).

Legend:
[1] = target: the molecule itself; assay: SEC-MALS; 0.5 ml at 1 mg/ml on Superdex 75 or Superdex 200 10/300GL in 20 mM HEPES, 150 mM NaCl, 50 mM L-Arg, 50 mM L-Glu, 0.5 mM TCEP, pH 7.9; free protein and (ICP4N) with IE3_19mer DNA
[2] = target: T1, ICP4N (ICP4 DNA binding domain) (Herpes simplex virus 1, UniProt P08392 258-487); assay: SPR; 2 mM Mg2+; nanomolar Kd, value only in Fig 5C; SPR: 20 mM HEPES, 200 mM NaCl, 2 mM MgCl2, 0.05% Tween-20, pH 7.4, 25 C; NMR: 20 mM MES, 50 mM NaCl, 50 mM L-Arg, 50 mM L-Glu, 1 mM TCEP, 2 mM MgCl2, pH 6.6, 25 C; details: protein: recombinant; tags: N-terminal Strep-tag, HRV3C-cleaved (removed); chain copies: 2; label: 5' biotin on forward strand; blunt
T1 sequence: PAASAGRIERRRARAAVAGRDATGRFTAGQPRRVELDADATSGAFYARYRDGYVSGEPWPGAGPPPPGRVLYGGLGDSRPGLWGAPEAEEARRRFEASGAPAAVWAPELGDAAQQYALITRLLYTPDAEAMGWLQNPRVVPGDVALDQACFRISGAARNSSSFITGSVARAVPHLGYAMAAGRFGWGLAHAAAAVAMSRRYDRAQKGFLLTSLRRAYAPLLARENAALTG

[3] = target: T1, ICP4N (ICP4 DNA binding domain); assay: X-ray crystallography; 2.28 A; SPR: 20 mM HEPES, 200 mM NaCl, 2 mM MgCl2, 0.05% Tween-20, pH 7.4, 25 C; NMR: 20 mM MES, 50 mM NaCl, 50 mM L-Arg, 50 mM L-Glu, 1 mM TCEP, 2 mM MgCl2, pH 6.6, 25 C; details: protein: recombinant; tags: N-terminal Strep-tag, HRV3C-cleaved (removed); chain copies: 2; blunt
[4] = target: T2, ICP4NdeltaIDR (ICP4deltaIDR) (Herpes simplex virus 1, UniProt P08392 288-487); assay: X-ray crystallography; 2.12 A; SPR: 20 mM HEPES, 200 mM NaCl, 2 mM MgCl2, 0.05% Tween-20, pH 7.4, 25 C; NMR: 20 mM MES, 50 mM NaCl, 50 mM L-Arg, 50 mM L-Glu, 1 mM TCEP, 2 mM MgCl2, pH 6.6, 25 C; details: protein: recombinant; tags: N-terminal Strep-tag, HRV3C-cleaved (removed); chain copies: 2; blunt
T2 sequence: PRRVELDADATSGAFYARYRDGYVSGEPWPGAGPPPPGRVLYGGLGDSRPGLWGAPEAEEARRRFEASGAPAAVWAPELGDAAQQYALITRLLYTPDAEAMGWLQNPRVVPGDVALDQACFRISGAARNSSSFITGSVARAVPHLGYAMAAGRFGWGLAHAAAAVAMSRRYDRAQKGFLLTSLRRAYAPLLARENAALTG

B1: ICP4 DNA binding domain, residues 258–487 (ICP4N) (domain or fragment)
chain: PAASAGRIERRRARAAVAGRDATGRFTAGQPRRVELDADATSGAFYARYRDGYVSGEPWPGAGPPPPGRVLYGGLGDSRPGLWGAPEAEEARRRFEASGAPAAVWAPELGDAAQQYALITRLLYTPDAEAMGWLQNPRVVPGDVALDQACFRISGAARNSSSFITGSVARAVPHLGYAMAAGRFGWGLAHAAAAVAMSRRYDRAQKGFLLTSLRRAYAPLLARENAALTG
notes: gene synthesised, codon optimised for E. coli; Strep-tag removed with HRV3C protease; Homodimer by SEC-MALS, AUC and crystal structure; also called ICP4 DBD; source: E. coli T7 Express LysY, purified (Strep-Tactin, Superdex 75); not shown: Strep-tag, N-terminal, cleaved
[1]
  stoichiometry N: 2

B2: truncated ICP4 DNA binding domain, residues 288–487 (ICP4NΔIDR) (domain or fragment)
chain: PRRVELDADATSGAFYARYRDGYVSGEPWPGAGPPPPGRVLYGGLGDSRPGLWGAPEAEEARRRFEASGAPAAVWAPELGDAAQQYALITRLLYTPDAEAMGWLQNPRVVPGDVALDQACFRISGAARNSSSFITGSVARAVPHLGYAMAAGRFGWGLAHAAAAVAMSRRYDRAQKGFLLTSLRRAYAPLLARENAALTG
notes: Strep-tag removed with HRV3C protease; also called ICP4ΔIDR; ICP4NdIDR; source: E. coli T7 Express LysY, purified (Strep-Tactin, Superdex 75); not shown: Strep-tag, N-terminal, cleaved
[1]
  stoichiometry N: 2

B3: IE3_19mer, biotinylated (dsDNA)
DNA 1: CCGATCGTCCACACGGAGC
DNA 2: GCTCCGTGTGGACGATCGG
[2]
  binding result: binds

B4: IE3_19mer (dsDNA)
DNA 1: CCGATCGTCCACACGGAGC
DNA 2: GCTCCGTGTGGACGATCGG
[3]
  binding result: binds

B5: IE3_12mer (dsDNA)
DNA 1: CCGATCGTCCAC
DNA 2: GTGGACGATCGG
[4]
  binding result: binds
